Reference: the nanobody polyreactivity screen of Harvey et al. (2022)

Assay: yeast display, Sf9 membrane polyspecificity reagent, FACS + sequencing; frameworks hold sequencing errors
Method in brief: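 After 36–48 hours of galactose induction, yeast (Saccharomyces cerevisiae BJ5465) displaying a synthetic nanobody library were stained at 4 °C for 1 hour with 10% biotinylated, detergent-solubilized Sf9 membrane reagent. Streptavidin microbeads enriched the stained cells before FACS sorting into low and high (top ~1%) gates on anti-HA and streptavidin fluorescence. Each clone's polyreactivity label reflects its gate of origin.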

Sequence	polyreactivity (PSR sort gate)
QVQLVESGGGLVQAGGSLRLSCAASGSTFAYYTMGWYRQAPGKERELVAAITSAGRTSYADSVKGRFTISRDNAKNTVYLQMKSLKPDDTAVYYCAKGRKPGYYYWGQGTQVTVSS	high polyreactivity
QVQLVESGGGLVQAGGSLRLSCAASGRTFIYYTMGWYREAPGKERELVASISFSGGRTYYADSVKGRFTISRDNAKNTVYLQMNSLKAEDTAVYYCNRVLYYQVDYWGQGTEVTVSS	high polyreactivity
QVHLVESGGGLVQAGGSLRLSCAASALTDGRYAMGWYRQAPGKERELVADIRYRAGSTNYADSVKGRFTISRDNAKNTVYLQMNSLKPEDTAVYYCAKGHPNDFGYWGQGTQVTVSS	high polyreactivity
QFQLVESGGGLDQAGGSLRLSCAASGSIFSYYDMGGDRQAPGKDRELVAGNSRGGSTNYADSVKGRFTISRDNAKKTVYLQMNSLKPEDTAVYYCNADQSSRTYPFRLSRRSWLYGYWGQGTQVTVSS	low polyreactivity
QVQLVESGGGLVQAGGSLRLSCAASGSIFDANAMGCYRQAPGKERELVAAINWTGGSTYYADSVKGRFTISRDNAKNTVYLQMNSLKPEDTAVYYCAAEWWYPYNPDIYYYWGQGIQVTVSS	high polyreactivity
QVQHVESGGGLVQAGGSLRLSSAASGFIFILYAMGWYTQAPGKERELVAAISSCGTRTYYADSVKGRFTISRDNAKNTVYLQMISLKPEDTGVYYCNTAWRDYVARLGGVGYDYWGQGTQVTVSS	high polyreactivity
QVQLVESGGGLVQAGGSLRLSCAASGFIFQGYVMGWYRQAPGKEREFVAAISRSGGTTFYADSVKGRFTISRDNAKNTVYLQMNSLKPEDTAVYYCNRARLGRPGYDYWGQGTQVTVSS	high polyreactivity
QVQLVESGGGLVQAGGSLRLSCAASGRIFKKNAMGWYRQAPGKERELVAAISYRGGSTYYADSVKGRFTISRDNAKNTVYLQMNSLKPEDTAVYYCNVGSRGGWDASDYDYWGQGTQVTVSS	high polyreactivity
QVHQQESGGGLMQAGGSQRLSCAASGSISYYSDMGRYRQAPGKEREFVAGIGYGTTTNYADSVKGRFTTSRDNAKNTVYLQMISMKPEDNAVYYCAAYQGNGYEFYYWGQGTQVTVRS	low polyreactivity
QVQLVESGGGLVQAGGSLRLSCAASGITFRRNAMGWYRQAQGKESQLVAAITSRGGSTYYADSVKWRFTISRDNAKNTVYLQMISMKPEDTAVYYCNAGGVDRVDRDYWGQGTQVTVSS	high polyreactivity
QVQLVESGGGLVQAGGSLRLSCAASGSIFPLYAMGWYRQAPGKERELVAAISWSGGSTYYADSVKGRFTISRDNAKNTVYLKMNSLKPEDTAVYYCATLYISTSGYIYEGDYWGQGTQVTVSS	high polyreactivity
QVQLVESGGGLVQAGGSLRLSCAASGRIFVPNAMGWYRQAPGKERELVAAISSSGGSTYYADSVKGRFTISRDNAKNTVYLQMNSLKPEDTAVYDCNKVQSTANDYWGQGTQVTVSS	low polyreactivity
QVQLVESGGGLVQAGGSLRLSCAASGRIFVYNAKGWNRQAPGKERQLVAAISYNGGGTYYADSVKGRFTISRDNAKNTVYLQMNSLKPEDTAVYYCAARYRSWTGKYEYWGQGTQVTVSS	high polyreactivity
QVQLVESGGGLVQAGGSLRLSCAASGRTFTGNAMGWYRQAPGKERELVAAISTSGTRTSYADSVKGRFTISRDNAKNTVYLQMNSLKPEDTAVYYCAALRKSLYRTYTYDYWGQGTQVTVSS	high polyreactivity
QVQLVESGGGLVQAGGSLRLSCAASGRTFGYNVMGWYRQAPGKERELVADITSTSSTSYADSVKGRFTISRDNAKNTVYLQMNSLKPEDTAVYYCAAYYYFFRRYSWRLSGDYWGQGTQVTVSS	low polyreactivity
QVQLVESGGGLVQAGGSLRLSCAASGSTFRVNAMGWYRQAPGKERELVAAISFSAGGTYYADSVKGRFTISRDNAKNTVYLQMNSLKPADTAVYYCNARYGGWVWSTYDHWGQGTQVTVSS	low polyreactivity
QVQLVESGGGLFQAGGSLRLSSAASGSTFSYYVMGWYRQAPGKERELVAAIDYSGDSTYYADSVKGRFTLSRDNAKNTVYLQMNSLKPEDTAVYYCAADDYPWNRYEYWGQGTQVTVSS	low polyreactivity
QVQLVESGGGLVQAGGSLRLSCAASGRTFLAYAMGWYRQAPGKERELVAAISSSGSTTYYADSVKGRFTISRDNAKNTVYLQMNSLKPEDTAVYYCAASNGYRSSYYRYDYWGQGTQVTVSS	low polyreactivity
QVQLVESGGGLVQAGGSLRLSCAASGSIFEGYAMGWYRQAPGKERELVADITSGGSTYYADSVKGRFTISRDNAKNTVYLQMNSLKPEDNAVYYCNRDYHWIELVYPDDRREYDYWGQGTQVTVSS	low polyreactivity
QVQLVESGGGLVQAGGSLRLSCAASGFTFYRYTMGWYRQAPGKERELVASITRRGGSTYYADSVKGRFTISRDNAKNTVYLQMNSLKPEDTAVYYCNAATPVWQSGTYEYWGQGTQVTVSS	high polyreactivity
QVQLVESGGGLVQAGGSLRLSCAASGRTFSYYAMGWYRQAPGKERELVARITYRGGRTYYADSVKGRFTISRDNAKNTVYLQMNSLKPEDTAVYYCATTSWRYGYDYWGQGSQVTVSS	high polyreactivity
QVQLLESGGGIVQAGGSLRLSCDSSGSTFGTNAMGWYRQAPGKERELVAVITFSGGSTYYADSVKGRFTISRDNAKNTVYLQMNSLKPEDTAVYYCAKDGFITFVYDHDYWGQGTQVTVSS	low polyreactivity

Sequence	polyreactivity (PSR sort gate)
QVQLVESGGGLVQAGGSLRLSCAASGFTFSYYTMGWYRQAPGKERELVAAISSTGVSTYYADSVKGRFTISRDNAKNTVYLQMNSLKPEDTAVYYCAADYYGVYEYYYWGQGTQVTVSS	high polyreactivity
QVQLVESGGGLVQAGGSLRLSSAASGRIFRFYAMGWYRQAPGKERELVAAITSGGSTYYADSVKGRFTISRDNAKNTVYLQMNRLKPEDTAVYYCANYYWGQGTQVTVSS	low polyreactivity
QVQLVESGGGLVQAGGSLRLSCAASGIIFVYNTMGWYRQAPGKERELVAAISYSGGGTYYADSVKGRFTISRDNAKNTVYLQMNSLKPEDTAVYYCAAETYYAPYDYWGQGTQVTVSS	high polyreactivity
QVQLVESGGGLVQAGGSLRLSCAASGSTFKRYAMGWYRQAPGKERELVAAITSGSSTYYADSVKGRFTISRDNAKNTVYLQMNSLKPEDTAVYYCAARRAGAKYYLYGYDYWGQGTQVTVSS	low polyreactivity
QVQLVESGGGLVQAGGSLRLSCAASGSIFQWYAMGWYRQAPGKERELVAAITISGGSTHYADSVKGRFTISRDNAKNTVYLQMNSLKPEDTAVYYCATPRYPSYDYWGQGTQVTVSS	low polyreactivity
QVQLVESGGGLVHAGGSLRLSCAASGRIFTTNAMGWYRQAPGKERELVASITRSGSTYYADSVKGRFTISRDNAKNTVYLQMNSLKPEVTAVYYCAAYAYIFLDWGGYPYYLYEYDYWGQGTQVTVSS	low polyreactivity
QVQLVESGGGLVQAGGSLRLICAASGIIFPSYAMGWYRQAPGKERELVAGISLSGGSTYYADSVKGRFTISRDNAKNTVYLQMNSLKPEDTAVYYCDTRNHYFRALRYGYWGQGTLVTVSS	high polyreactivity
QVQLVESGGGLVQAGGSLRLSCAASGRIFSSYAMGWYRQAPGKERELVAAISGSGGRTYYADSVKGRFTISRDNAKNTVYLQMNSLKPEDTAVYYCNARRRSPYSTGVAYDYWGQGTQVTVSS	high polyreactivity
QVQLVESGVGLVQAGGSLRLSCAPSGFTFGRYAMGWYRQAPGKEREFVASISRSGGSTNYADSVKGRFTISRDNAKNTVYLQMNSLKPEDTAVYYCARDSWLHYRWGYDYWGQGTQVTVSS	high polyreactivity
QVQLVESGGGLVQAGGSLRLSCAASGITFRYYAMGLYRQAPGKERELVAAITRSASSTFYADSVKGRFTISRDNAKNTVYLQMNSLKPEVTAVYYCAAESVRAVFPDRYKYWGQGTQVTVSS	high polyreactivity
QVQLVETGGGLVQAGGSLRLSCAASGFTFKFNTMGWYRQAPGKERELVAAISWRGGDTSYADSVKGRFTISRDNAKNTVYLQMNSLKPEDTAVYYCAASPRYPYWYDYWGQGTQVTVSS	low polyreactivity
QVQLVESGGGLVQAGGSLRLSCAASGLIFDWYAMGWYRPAPGKERELVADISNSGGSTNYADSVKGRFTISRDSAFNTVYLQMNSLKPEDTEVYYCAVDYYYPTLTIGYYYWGQVTQVTVSS	low polyreactivity
QVQLVESGGGLVQAGGGLRLSCAASGFTFTKYAMGLYRQAPGKERELVAAITSGTSTYYADSVKGRFTISRDNAKNTVYLQMNSLKPEDTAVYYCAAPLYGRYSYGYWGQGTQVTVSS	high polyreactivity
QVQLVESGGGLVQAGGSLRLSCAASGRTFRYNAMGWYRQAPGKERELVAAITQSGGSTYYADSVWGRFTISRDNAKNTVYLQMNSLKPDDTAVYYCAKVRERINYDYWGQGTQVTVSS	low polyreactivity
QVQLVESGGGLVQAGGSLRLSCAASGRTFNTYAMGWYRQAPGKERELVAAISSGRRTYYADSVKGRFTISRDNAKNTVYLQMNSLKPEDTAVYYCAKRGRYSYKYDYWGQGTQVTVSS	high polyreactivity
QVQLVESGGGLVQAGGSLRLSCAASGSSFSRNAMGWYRQAPGKESELVAAISWSGGRTYYAASVKGRFTISRDNAKNTVYLQMNSLKPEDTAVYYCAKGYSYHWYHVTYYSLGQGTQVTVSS	high polyreactivity
QVQLVESGGGLVQAGGSLRLSWAASGITFDLYAMGWYRPAPGKEREFVATISWTGGTTYYADSVKGRFTISRDNAKNTVDLQMISLKPEVPAASYCNKGSDFFWYDYDYCGQGTQVTVSS	low polyreactivity
QVQLVESGGGLVQAGGSLRLSCAASGSIFSTYAMGWYRQAPGKERELVASITSTGGSTYYADSVKGRFTISRDNAKNTVYLQMNSLKPEDTAVYYCAARYRRTHRYYYAYSTMDYWGQGTQVTVSS	high polyreactivity
QVQLVESGGGLVQAGGSLRLSCAASARIFTAYAMGWYRQAPGKERELVASISTSGGRTYYADSVKGRFTISRDNAKNTVYLQINSLKPEDTAVYYFAADFESYSRYYDGYDYWGQGTQVTVSS	high polyreactivity
QVQLVESGGGLVQAGGRLRLSCAASGIIFFWYVRGWYRQAPGKERELVAAINRGGITNYADSVKGRFTISRDNAKNTVYLQMNSLKTEDTAVYYCNKDWKTESWFNRYGGYGIEDDYWGQGTQVTVSS	high polyreactivity
QVQLVESGGGLVQAGGSLRLSCAASGSTFYNNAMGWYRQAPGKERELVATISASSTSTYYADSVKGRFTISRDNAKNTVYLQMNSLKPEDTAVYYCAKDYVHGSTYGYYWYGYDYWGQGTQVTVSS	low polyreactivity
